Laboratory results reported in patent US20230074436A1 (DENALI THERAPEUTICS, published 2023).
Blank lines part the entries; values can stand above or below the binder they belong to.

Tests used:
[1] = molecular target: T1, human alpha-synuclein monomer (human, UniProt P37840 1-140); assay: SPR (Biacore), aSyn monomers
[2] = molecular target: T1, human alpha-synuclein monomer; assay: SPR (Biacore 8K), IgG captured on anti-human Fc, aSyn monomer injected
[3] = molecular target: T2, human alpha-synuclein oligomers (human, UniProt P37840 1-140); assay: SPR; SPR; aSyn oligomers
[4] = molecular target: T1, human alpha-synuclein monomer; assay: SPR; SPR; aSyn monomers
[5] = molecular target: T3, human alpha-synuclein pre-formed fibrils (human, UniProt P37840 1-140); assay: SPR; SPR; aSyn fibrils
[6] = molecular target: T2, human alpha-synuclein oligomers; assay: KinExA kinetic exclusion assay
[7] = molecular target: T1, human alpha-synuclein monomer; assay: KinExA kinetic exclusion assay
[8] = molecular target: T3, human alpha-synuclein pre-formed fibrils; assay: KinExA kinetic exclusion assay
[9] = molecular target: T3, human alpha-synuclein pre-formed fibrils; assay: competition ELISA: fibrils titrated in solution against 0.6 nM antibody, free antibody read on aSyn-coated plate
rat alpha-synuclein [10] = molecular target: T4, rat alpha-synuclein (rat, UniProt P37377 1-140); assay: direct ELISA on coated antigen;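 also: plates coated with recombinant human, mouse or rat alpha-synuclein, purified antibody titrated 10 µg/mL down to 0.6 ng/mL for 1 h, bound antibody detected by anti-rat HRP with TMB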
[11] = molecular target: T1, human alpha-synuclein monomer; assay: direct ELISA on coated antigen;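 also: plates coated with recombinant human, mouse or rat alpha-synuclein, purified antibody titrated 10 µg/mL down to 0.6 ng/mL for 1 h, bound antibody detected by anti-rat HRP with TMB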
gamma-synuclein protein = molecular target: T5, gamma-synuclein protein (human, UniProt O76070 1-127); assay: ELISA on coated synuclein, 1 ug/mL
T5 construct: species read from 'recombinant human alpha-synuclein protein, beta-synuclein protein, and gamma-synuclein protein'

beta-synuclein protein = molecular target: T6, beta-synuclein protein (human, UniProt Q16143 1-134); assay: ELISA on coated synuclein, 1 ug/mL
T6 construct: species read from 'recombinant human alpha-synuclein protein, beta-synuclein protein, and gamma-synuclein protein'

[12] = molecular target: T7, alpha-synuclein peptide 95-140 (human); assay: peptide ELISA, coated fragment
T7 construct: synthetic peptide coated on plate

[13] = molecular target: T8, alpha-synuclein peptide 61-140 (human); assay: peptide ELISA, coated fragment
T8 construct: synthetic peptide coated on plate

[14] = molecular target: T1, human alpha-synuclein monomer; assay: direct ELISA, plate coated with 1 µg/mL recombinant human alpha-synuclein, antibody titrated, anti-rat HRP, A450
[15] = molecular target: T1, human alpha-synuclein monomer; assay: ELISA, coated human alpha-synuclein
[16] = molecular target: alpha-synuclein phosphorylated at serine 129 (human, UniProt P37840 1-140); assay: SPR (Biacore), antibody captured, p129-Syn injected
[17] = molecular target: T7, alpha-synuclein peptide 95-140; assay: ELISA, plate coated with the peptide or protein, antibody titrated, anti-rat HRP, A450
[18] = molecular target: T8, alpha-synuclein peptide 61-140; assay: as above
[19] = molecular target: T1, human alpha-synuclein monomer; assay: as above
[20] = molecular target: T9, alpha-synuclein peptide 1-95 (human); assay: peptide ELISA
T9 construct: synthetic peptide coated on plate

[21] = molecular target: alpha-synuclein peptide 1-112 (human); assay: peptide ELISA
[22] = molecular target: T10, alpha-synuclein peptide 1-61 (human); assay: peptide ELISA
T10 construct: synthetic peptide coated on plate

mouse alpha-synuclein = mouse alpha-synuclein (mouse, UniProt O55042 1-140); assay: direct ELISA, plate coated with 1 µg/mL recombinant mouse alpha-synuclein, antibody titrated, anti-rat HRP, A450
[23] = molecular target: T1, human alpha-synuclein monomer; assay: SPR (Biacore), antibody captured, monomer injected, 1:1 fit
rat alpha-synuclein [24] = molecular target: T4, rat alpha-synuclein; assay: direct ELISA; member tied to this end by the EC50 values of Table 6 (2.0/0.03)
rat alpha-synuclein [25] = molecular target: T4, rat alpha-synuclein; assay: direct ELISA on coated antigen; upper end tied to 22D11 by Table 6 (2.0 nM rat / 0.03 nM human);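 as to Bmax (O.D. at 450 nm): plates coated with recombinant human, mouse or rat alpha-synuclein, purified antibody titrated 10 µg/mL down to 0.6 ng/mL for 1 h, bound antibody detected by anti-rat HRP with TMB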;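 as to EC50: plates coated with recombinant human, mouse or rat alpha-synuclein, purified antibody titrated 10 µg/mL down to 0.6 ng/mL for 1 h, bound antibody detected by anti-rat HRP with TMB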
[26] = molecular target: T2, human alpha-synuclein oligomers; assay: competition ELISA: oligomers titrated in solution against 0.6 nM antibody, free antibody read on aSyn-coated plate

- Kd [1]: 210 pM
- Kd [2]: 100 pM
- Kd [3]: 190 pM
- Kd [4]: 120 pM
- Kd [5]: 270 pM
- Kd [6]: 8.86 pM
- Kd [7]: 15.7 pM
- Kd [8]: 0.638 pM
B1: 20H4_HC5_L1_1 (antibody, V domains shown)
VH: EVQLVESGGGLVQPGGSLRLSCAASGFTFSNAAMYWVRQAPGKGLELLARIRTKPNNYATYHADSVKGRFTISRDDSKNTVYLQMNSLRAEDTAVYYCTADMATGDYWGQGTLVTVSS
VL: DIQMTQSPSSLSASVGDRVTITCKASQNINNNLDWYQQKPGKAPKPLIYSTNNLKTGVPSRFSGSGSGTDFTLTISSLQPEDFATYYCYQYKSAWTFGQGTKVEIK
notes: also called 20H4_H5_L1_1; hu20H4

- IC50 [9]: 4530 pM
- Bmax (O.D. at 450 nm) (rat alpha-synuclein [10]): 0.05 OD
- EC50 (rat alpha-synuclein [10]): 2000 pM
- Bmax (O.D. at 450 nm) [11]: 1.2 OD
- EC50 [11]: 30 pM
- binding result (gamma-synuclein protein): no binding
- binding result (beta-synuclein protein): no binding
- antibody concentration at which ELISA is positive [12]: < 40 ng/mL
- antibody concentration at which ELISA is positive [13]: < 40 ng/mL
- EC50 (read off the curve) [14]: ~0.04 µg/mL
- antibody concentration at which ELISA is positive [15]: < 40 ng/mL
- Kd [16]: 42900 pM
- koff [16]: 0.0035 s⁻¹
- kon [16]: 81600 M⁻¹ s⁻¹
- EC50 (read off the curve) [17]: ~0.04 µg/mL
- EC50 (read off the curve) [18]: ~0.03 µg/mL
- EC50 (read off the curve) [19]: ~0.04 µg/mL
- antibody concentration at which ELISA is positive [20]: > 2600 ng/mL
- antibody concentration at which ELISA is positive [21]: > 2600 ng/mL
- antibody concentration at which ELISA is positive [22]: > 2600 ng/mL
- binding result (mouse alpha-synuclein): no binding (tested: 10 µg/ml (log 1))
- Kd [23]: 18200 pM
- koff [23]: 0.00337 s⁻¹
- kon [23]: 186000 M⁻¹ s⁻¹
- fold higher EC50 for rat than for human alpha-synuclein (rat alpha-synuclein [24]): 66.7 fold
- fold higher EC50 for rat alpha-synuclein compared to human alpha-synuclein (rat alpha-synuclein [25]): 66.7 fold
- IC50 [26]: 15200 pM
B2: 22D11 (antibody, rat IgG1, V domains shown)
VH: AVQFVESGGGLVRPKESLKISCTASGFTFTNAAIYWVRQAPGKGLECIARIRTKPNNYATYYADSVRGRFTISRDDSKPMVYLQMNELKTEDTAMYYCAADASRGDYWGQGVMVTVSS
VL: DIQMTQSPSVLSASVGDRVTFSCKASQNINKNLDWYQQKLGEVPKVLIYFTNNLQTGIPSRFSGSGSGTDYTLTISSLQPEDVATYYCYQYTSGFTFGAGTKLELK
notes: also called clone 22D11
